Measured values: publication doi:10.1101/2021.05.23.445348

Legend:
Test in all cases: ITC
[1] = molecular target: SARS-CoV-2 RBD K417N (SARS-CoV-2) (UniProt P0DTC2)
[2] = molecular target: SARS-CoV-2 RBD T478I (SARS-CoV-2) (UniProt P0DTC2)
[3] = molecular target: SARS-CoV-2 RBD Y453F (SARS-CoV-2) (UniProt P0DTC2)

CC12.1 single chain variable fragment (scFv)
Kd [1]: 0.119 µM | Kd [2]: 0.0058 µM | Kd [3]: 0.827 µM
